What was measured:
[1] = biological target: 原核表达并纯化的sIFN-λ4重组蛋白 (porcine IFN-λ4, E. coli, pET-15b-sIFN-λ4) (pig); assay: indirect ELISA, purified ascites antibody diluted 100-fold and then in 2-fold steps to 100×2^12
[2] = biological target: 原核表达并纯化的sIFN-λ4重组蛋白 (porcine IFN-λ4, E. coli, pET-15b-sIFN-λ4) (pig); assay: indirect ELISA, antigen coated in 2-fold dilutions; positive if OD630nm of the well : OD630nm of the negative well ≥2.1

效价 (ELISA titre) (fold dilution) [1]: 205000 | 最低检测限 (lowest detectable amount of coated antigen) [2]: 6.25 ng
B1: 单克隆抗体λ4-1A2 (sIFN-λ4单克隆抗体, secreted by hybridoma cell line λ4-1A2, CCTCC NO:C2022132) (antibody, V domains shown)
VH: QVTLKESGPGKLQPSQTLTLTCSFSGFSLNTYGIGVAWIRQPSGKGLEWLAHIWWNDNKYYNSALKTRLTISKDTSNNQVFLKIASVDTADTATYYCASIKGDYWGQGTS
VL: NIVLTQSPASLAVSLGQRATISCRASKSVDSFGKSFMHWYQQKPGQPPKLLIYLVSNLESGVPARFSGSGSRTDFTLTIDPVEADDAATYYCQQNNEDPPTFGGGTKLEIKR
